The source of these data is publication PMC7614001.

Test [1] deals with T1, ALK3 ECD (Homo sapiens), P36894.
T1 chain: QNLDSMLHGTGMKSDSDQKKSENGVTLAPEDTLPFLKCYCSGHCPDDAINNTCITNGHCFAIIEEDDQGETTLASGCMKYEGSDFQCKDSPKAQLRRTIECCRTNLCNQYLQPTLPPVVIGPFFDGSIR
Kind of test: BLI. Particulars: remark: other sources report otherwise.

The target of test [2] is T2, ALK2 ECD (Homo sapiens), Q04771.
T2 chain: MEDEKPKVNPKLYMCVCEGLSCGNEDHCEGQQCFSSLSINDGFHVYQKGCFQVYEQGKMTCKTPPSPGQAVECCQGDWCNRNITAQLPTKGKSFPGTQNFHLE
Kind of test: BLI. The following applies: remark: other sources report otherwise.

B1: BMP-7, P18075 (protein)
chain: STGSKQRSQNRSKTPKNQEALRMANVAENSSSDQRQACKKHELYVSFRDLGWQDWIIAPEGYAAYYCEGECAFPLNSYMNATNHAIVQTLVHFINPETVPKPCCAPTQLNAISVLYFDDSSNVILKKYRNMVVRACGCH
With B1, the values for the Kd in test [1] and in test [2] were 19 nM and 18.4 nM, respectively.

B2: BMP-9, Q9UK05 (protein)
chain: SAGAGSHCQKTSLRVNFEDIGWDSWIIAPKEYEAYECKGGCFFPLADDVTPTKHAIVQTLVHLKFPTKVGKACCVPTKLSPISVLYKDDMGVPTLKYHYEGMSVAECGCR
B2 came in with a Kd in test [2] of 133 nM.

Usually Kd stands for the concentration at which binding is half-saturated.
